# Experimental data taken from publication PMC6113619.
# Molecular target: T1, QscR (Pseudomonas aeruginosa PAO1?) (UniProt G3XD77)
# T1 sequence: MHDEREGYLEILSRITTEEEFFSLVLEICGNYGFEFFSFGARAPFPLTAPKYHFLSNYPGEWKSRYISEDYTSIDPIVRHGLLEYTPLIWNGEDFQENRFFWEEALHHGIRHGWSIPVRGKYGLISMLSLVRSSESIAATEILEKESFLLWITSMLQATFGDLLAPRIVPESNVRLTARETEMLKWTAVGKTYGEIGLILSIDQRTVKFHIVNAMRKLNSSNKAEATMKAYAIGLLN
# Test: EMSA
# Conditions: EMSA: 40 ng probe, 0-100 ng QscR in 10 ul; 20 mM Tris pH 7.5, 50 mM KCl, 10% glycerol, 1 mM DTT, 20 uM 3OC12-HSL; 20 min room temperature; 5% native gel at …
sequence,measurement,value
CTCTCGTGTGAAGCCATTGCTCTGATCTTTTCGGACGTTTCTTCGAGCCTAGCAAGGGTCCGGGTTCACCGAAATCTATCTCATTTGCTAGTTATAAAATTATGAAATTTGCATAAATTCTTCAGCTTCCTATTTGGAGGAAGTGAAGATGATCGTACAAATTGGTCGGCGCGAAGAGTTCGATAAAAAACTGCTGGGCGAGATGCACAAGTTGCGTGCTCAAGTGTTC (double strand) [lasI promoter PCR fragment],binding,no binding
GCTTCACCGAGCAGAACTCCGGGCTGATCTACCGCGGGCAATCAGGCGGAATGAACGAAGCGTTCTCCGACATGGCCGGCGAGGCTGCCGAGTTCTATATGCGCGGCAAGAACGACTTCCTGATCGGCTACGACATCAAGAAGGGCAGCGGTGCGCTGCGCTACATGGACCAGCCCAGCC (double strand) [lasB promoter PCR fragment],binding,no binding
